Data reported in article PMC5554155.

Test: immunoblot, N-terminal Flag vs C-terminal epitopes, ldlD cells
Conditions: glycan lost; control: WT Ser49-β1AR, ldlD cells with Gal/GalNAc

Row | Substance | other: proteolytic processing
1 | β1-adrenergic receptor (β1AR): N15A | no change
2 | β1-adrenergic receptor (β1AR): ldlD cells without Gal/GalNAc | increases
